# According to patent US20200069764A1 (Pfizer, published 2020):
# B1: EDB-L19-diS-DM1 (antibody, human IgG1, kappa)
# heavy: not shown
# light: EIVLTQSPGTLSLSPGERATLSCRASQSVSSSFLAWYQQKPGQAPRLLIYYASSRATGIPDRFSGSGSGTDFTLTISRLEPEDFAVYYCQQTGRIPPTFGQGTKVEIKRTVAAPSVFIFPPSDEQLKSGTASVVCLLNNFYPREAKVQWKVDNALQSGNSQESVTEQDSKDSTYSLSSTLTLSKADYEKHKVYACEVTHQGLSSPVTKSFNRGEC
# B2: EDB-L19-diS-C2OCO-1569 (antibody, human IgG1, kappa)
# heavy: not shown
# light: B1 light
# B3: EDB-L19-diS-4574 (antibody, human IgG1, kappa)
# heavy: not shown
# light: B1 light
# Biological target: EDB+ FN on WI38-VA13 cells (human, UniProt P02751 32-2477)
# Sequence (P02751 32-2477): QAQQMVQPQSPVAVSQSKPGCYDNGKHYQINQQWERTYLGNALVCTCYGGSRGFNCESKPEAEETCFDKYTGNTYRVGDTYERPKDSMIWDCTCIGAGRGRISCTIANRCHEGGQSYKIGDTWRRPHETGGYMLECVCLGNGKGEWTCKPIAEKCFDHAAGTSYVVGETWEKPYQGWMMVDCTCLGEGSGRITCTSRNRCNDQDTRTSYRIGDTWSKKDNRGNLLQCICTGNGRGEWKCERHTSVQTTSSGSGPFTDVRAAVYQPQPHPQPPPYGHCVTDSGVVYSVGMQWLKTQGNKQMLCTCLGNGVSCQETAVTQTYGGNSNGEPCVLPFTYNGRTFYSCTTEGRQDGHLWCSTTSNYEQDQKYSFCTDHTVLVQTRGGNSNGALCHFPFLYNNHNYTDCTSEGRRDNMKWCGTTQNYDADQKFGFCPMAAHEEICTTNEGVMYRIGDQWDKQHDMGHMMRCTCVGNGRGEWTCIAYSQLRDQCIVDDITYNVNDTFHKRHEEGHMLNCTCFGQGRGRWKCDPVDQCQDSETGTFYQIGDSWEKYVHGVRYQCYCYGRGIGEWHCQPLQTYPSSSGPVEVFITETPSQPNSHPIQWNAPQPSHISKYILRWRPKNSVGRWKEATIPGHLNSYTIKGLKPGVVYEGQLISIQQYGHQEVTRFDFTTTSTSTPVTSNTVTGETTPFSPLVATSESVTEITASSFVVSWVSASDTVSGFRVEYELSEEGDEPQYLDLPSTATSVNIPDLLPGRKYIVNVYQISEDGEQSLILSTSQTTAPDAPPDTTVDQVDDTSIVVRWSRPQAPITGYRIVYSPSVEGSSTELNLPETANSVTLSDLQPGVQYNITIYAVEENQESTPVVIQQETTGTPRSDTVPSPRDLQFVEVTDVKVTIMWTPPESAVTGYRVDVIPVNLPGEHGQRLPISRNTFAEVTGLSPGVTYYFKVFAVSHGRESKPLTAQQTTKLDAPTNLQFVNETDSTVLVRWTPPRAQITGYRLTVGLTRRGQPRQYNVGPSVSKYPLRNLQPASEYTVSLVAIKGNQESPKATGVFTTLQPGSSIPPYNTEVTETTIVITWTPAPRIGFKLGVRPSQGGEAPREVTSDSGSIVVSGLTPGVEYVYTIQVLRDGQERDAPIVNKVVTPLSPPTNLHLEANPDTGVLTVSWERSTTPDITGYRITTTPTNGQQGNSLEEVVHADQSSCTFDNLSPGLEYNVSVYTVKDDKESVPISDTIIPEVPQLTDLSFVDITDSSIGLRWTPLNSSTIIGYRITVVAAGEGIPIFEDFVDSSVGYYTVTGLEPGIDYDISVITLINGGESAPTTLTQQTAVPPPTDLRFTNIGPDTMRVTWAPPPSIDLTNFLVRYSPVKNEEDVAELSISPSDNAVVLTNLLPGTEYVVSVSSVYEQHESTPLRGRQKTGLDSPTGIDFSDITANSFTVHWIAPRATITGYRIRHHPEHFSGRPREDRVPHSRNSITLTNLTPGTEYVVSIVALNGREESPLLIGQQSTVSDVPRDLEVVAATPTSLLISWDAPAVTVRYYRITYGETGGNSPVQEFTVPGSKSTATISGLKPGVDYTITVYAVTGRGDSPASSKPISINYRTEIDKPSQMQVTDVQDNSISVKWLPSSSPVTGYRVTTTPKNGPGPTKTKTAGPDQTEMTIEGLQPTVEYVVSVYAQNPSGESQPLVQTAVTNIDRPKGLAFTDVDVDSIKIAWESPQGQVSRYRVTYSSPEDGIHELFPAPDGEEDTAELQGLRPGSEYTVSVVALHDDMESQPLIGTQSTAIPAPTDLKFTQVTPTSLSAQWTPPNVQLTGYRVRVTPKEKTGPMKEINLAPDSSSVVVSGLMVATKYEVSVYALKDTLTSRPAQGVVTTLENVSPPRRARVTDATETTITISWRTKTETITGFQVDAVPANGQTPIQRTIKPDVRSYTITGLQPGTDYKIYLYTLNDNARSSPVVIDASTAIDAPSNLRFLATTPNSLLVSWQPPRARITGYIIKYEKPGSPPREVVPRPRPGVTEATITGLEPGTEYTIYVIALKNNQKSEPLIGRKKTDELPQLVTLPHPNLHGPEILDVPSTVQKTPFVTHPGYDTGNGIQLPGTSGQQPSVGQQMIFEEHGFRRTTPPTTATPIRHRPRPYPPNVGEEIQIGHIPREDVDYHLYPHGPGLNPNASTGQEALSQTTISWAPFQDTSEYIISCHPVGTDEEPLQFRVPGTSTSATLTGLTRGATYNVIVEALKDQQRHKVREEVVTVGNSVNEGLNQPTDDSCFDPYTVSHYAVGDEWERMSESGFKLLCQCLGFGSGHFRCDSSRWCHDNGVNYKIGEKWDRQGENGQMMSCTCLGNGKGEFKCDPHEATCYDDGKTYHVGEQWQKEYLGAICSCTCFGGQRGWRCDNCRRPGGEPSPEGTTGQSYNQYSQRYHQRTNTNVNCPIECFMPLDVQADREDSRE
# Assay: cell-based or functional assay
row,Binder,"Avg IC50 (ng/ml of antibody), in vitro cytotoxicity on WI38-VA13 cells [ng/mL]"
1,B1,268
2,B2,21
3,B3,487
